Experimental data reported in a protein production outcome set (Wang et al. 2014).

Experiment: label from the status in PepcDB records

Row | Sequence | protein production
1 | MSLRHLYIEEGRTVCASATSRNRRPTSESPHSDDVVVVEGMLRGRPETRVHAMFDGFQGRHSAMWLAQNVMNYLNDLRDVNEEEITRQFERMDGDLRAANLPGGSSALIIFVRYEKKPTEARVVGRQIVPEGAKEFTSVAEALGGPLMPVVAMNFRRDPRAAKGIYTIHVASLGNSRCVLKSGRTAIHLSTPHTASSHKERHRVQAAGGVFTTVNGELLLGGVVPMTRAFGSFDFKKGGQGKLQQDLVSAVPDVTTFFAYPGDDIVAGTAGAFAHFRSHAAIAAAIALYPVSPETVLDAAKAMVVNAKRRKVTKNISTFVRHLPESRTRSQKMLEGTSGENGEEDFSIDRTNELTQALQAGFFSFLLYYEGHHHHHH | not failed
2 | MQNRWAETKFDSDIDEVVYGSRLIGSDPDLVLHGGGNTSVKTTERDHAGRIISVLRVKNSGSNLGTIDSRGFTGIRMDDALAAAKIDKMTDEAMVDYLKKSMVNPSEPSPSVETFLHAFLPYKFVMHSHADAILSITNTDLPSDQIAKILGNVVVLPYIPPGFTLAKEVMNCFKKGIDGIVLRKHGLLTFGDTGKEAYDRHINIVSRAENFIREKTDGK | not failed
3 | MQKVTLGLLVFLAGFPVLDANDLEDKNSPFYYDWHSLQVGGLICAGVLCAMGIIIVMSAKCKCKFGQKSGHHPGETPPLITPGSAQS | failed
4 | RTEVVAVALDTSLEELKGRFVESGISKIIVYDGNIDNVVGYIHSSEMFRSPKDWRNHVKEVPIVPETMAAHKLMKLFMQQKKTIAVVVDEFGGTSGIVSLEDLVEEIFGDIEDEHDNTSYICKQIGE | not failed
5 | MGMLTDVALKALKPKEKIYKIADRDGIYVRVMPSGAISFRLDYRLNGRRETIYLGRYGRDGISLALAREKCLDAKRAIGEGRSPAIEKQRDKRRLKEAKSFGEFGEKWLTAAPMADSTRAMRRAIFERELLPVWRNRLLTEITPDDLRTHCGAIVERGAPATAIHVRDILKQIYGFAILHGEKVANPADEVGPASIATFVPKDRSLSPSEIRVMLKQLEHVATIPTIRLGMRLYLLTMVRKSELQDAVWDEVDFENAVWTIPKERMKRSKAHNVYLSRQALDIMIALKTCAGNSRYLLPSRYDADAPMSRATFNRITYAVVERAKANGLPLEPFTVHDLRRTGSTLLNELGFNSDWIEKCLAHEDGRSSRGVYNKAEYEVQRRHMMQEWSDIVDAWVGGKKHVPTLIPPSMPILAPDPAL | failed
6 | MSPVLLFILGVVFVAIGVAVSIALHEVGHLVPAKLFKVRVTKYMIGFGPTLWSKKKGETEYGFKALPLGGYVSMIGMYPPNKEDGAVRPSSTGMFQTLATEARSMAHEEVGPGDENRVFYKLPVWKKIIVMLGGPAMNMLIGLILLAVLLMGFGMATATTTIADVSKCQVAAGETVDPDSADCKLTPAAAAGLQPNDTITSFDGKAVTSWDELTSWIRASAGRDVPITVERNGSTVETTVTPVLSSRPVVGADGRPEQDADGVLKYQEVGFLGIGAQSELVPQPASAVLPMAGENIKQISGVIFNLPARVVGVAKAAFSEEPRDPNGPISVVGVGRVAGEVAAMEQVPMQARIGTLIGLLAGLNFALAIFNLIPLLPLDGGHVAGALYEGARRRVAKLLGKPDPGAFDIAKLLPATYVVAALLMAMGALLIYADIVKPVNIFG | failed
7 | MADIKRIALLSGGGDCPGLNAVIRAVTKAAINEYGYEVIGYVYGYRGLYNNDYIELTVDKVENIYKEGGTILYSSNKDNLFDYLVDDGHGGKVKKDVSDVGVENLKKAGVDVLVVLGGDGTLTSARDFARKGVNVIGIPKTMDNDLPATDLTYGFISASSVGTEFIDRLNTTAKSHHRVICCELMGRDAGWIALYAGMAGNASCILIPEIPFTIDSIVRHVEKRDKEGYPYTVIAVAEGAKYADGTKVIGKIVEDSPDPIRLGGIASKVADDLEKVIKNHEVRSVNPGHIIRGGDIQAYDRILSIRFGVKAVELIHEGKFGNVVTLKGEEMSYTSLEEVIGDAKFGKQKHVDPNGELVRAAKSIGICFGDD | failed
8 | MASKITQPDKYSGFLNNYSDLKETTSATGKPVLRWVDPSFDQSKYDSIVWNPITYYPVPKPSTQVGQKVLDKILNYTNTEMKEAIAQRKPLVTTAGPRSLIFRGAITGVDTSKEGLQFYEVVPVALVVAGTQMATGHRTMDTRLYFEGELIDAATNKPVIKVVRQGEGKDLNNESTPMAFENIKQVIDDMATDATMFDVN | failed
9 | MSDPLTAQEQHKRRQAVRELMPRTPFIGGLGIVFERYEPDDVVIRLPFRTDLTNDGTYFHGGVIASVMDTAGAAAAWSNHDFDRGTRAATVAMSIQYTGAAKRCDLLCHARTARRRKELTFTEITATDPDGNIVAHAVQTYRIVLEHHHHHH | failed
10 | LRKMIALIHKDYAKNLRLETLASVFNYNRAYLGKLFKNYTGEYFNTYLDKVRIENGKRLLQKGYKVYEVAEKIGYANVDYFHRKFKKYVGVSPSTFRKRHDHLQVYHD | failed
11 | MRPEHIPNIISTLRIFLVYPVVHLMLAERYTAALALFVVAGVSDAIDGFLAKHYGWQSRLGSYLDPLADKLLLVCCFVAGAWLGLLPVWMAAAVLLRDAVIVTGAIAYYLLLHPFDGQPILASKLNTLLQLAFIVAILFNRGVSELPPFLLDGLLAATLATTIASGAIYVYVWGRNYRLETAQGRR | failed
12 | MIKIAIVGFGTVGQGVAELLIRKREEIEKAIGEFKVTAVADSKSSISGDFSLVEALRMKRETGMLRDDAKAIEVVRSADYDVLIEASVTRVDGGEGVNYIREALKRGKHVVTSNKGPLVAEFHGLMSLAERNGVRLMYEATVGGAMPVVKLAKRYLALCEIESVKGIFNGTCNYILSRMEEERLPYEHILKEAQELGYAEADPSYDVEGIDAALKLVIIANTIGVKASYEDVEVTGITQITPEAFQVAAEKGYTIRLIAEVSREKLKVSPRLVPFHHPLAIKGTMNAAMFKTDTAGSIFVAGRGAGKEETASAILSDLYEIYAGPR | failed
13 | MYTIYVPGLRDPDLCNHSLMAEILCIYSSNAFEKIRKYDNLFTYVDYGNLKESELYKKRNEEESSFLYKKRILSNNIQDKKLKFDIKKEQFNYGALLFFSLNDGEFLNYISENICGNSVEVLASNNSMTTLVCGDDKGFIRILRNNPKYDDFEIKNTQMIRDVDKECCTKLFNNKIIKIDERRRNSYQTKRKKSIDKQQDLLKKAKMENFSDH | failed
14 | MFQISFMSKQLQDLIDRELMNASSLVKKGKYEKALEKLNKAERLAEKAKNSELFCRVLLHKGEILDSMEKSREALLQYEKALEISLRFFMSDPQDSSSQRCLYNSIDLMENILNKIDDVSVAEKSYERTNKYFGKVIGTYEKLIAKYPENHYYLINYIITVKNLRGYLLNVGKSEKQIQLINSTLETFKEILNIQPENPEIFEKLDEFVKDLGEEFLDDELFENAKKIYEHLQGIYRGLLENYPDNELVLHYLIVSYGYFGNLYSRQRYLDRIEETYRPALSIVEDNLRKNPENTAFLENLGKIHEKIGVTYSEAKDQEKANSYYEKALANFVNLKGKASEDPDYQAELGKIFANLGERFETINRIENAAKSYLHKIEIYDSLFEEDPEDEDVKMDNIDTLMHIGNLYAEAGYTEPAKKYYEKAIEGYERLLSENPESTDFEIGISDILTALGDMYAKVGEEETEPEDAELETAREYYEKALKLNEKEFERYPDDLTCQDELIRTLGKLGDSFAVQDRYEDVIPFYRRIVEIKEQVVRDDPRRWLAVNSLTNFLYQLGSYYGKIEEVELERKQYSKAAELYSRALHDKNLQHQIKEVLAVEVQSHGTALLKSGKYNAAKEALDLALEFFENLYEEDPEDEENYPFICEALFQNGNLQRALENFEEAAKSFDSLLPIVEKLLESNPESPEARENAGVTYTNVGEVYSLNGEYEKSKQAFERALTINAVLLEEEPDNSLYKINQAQTFEKYAKLLSKLGRSEEAEDYSTKSEEIYRKLAEEDSDEGDINE | failed
15 | MITIITLLLVVLISAIIVRIGAVALEMTGLSRDVAAFQAQSAFSGVGFTTSESEYVVSHPVRRRIIRILMLLGSAGVTSAIATLVLSFVGTTKEEAGYRMVVLLIGLLALYLFFRSKFIERVMRKAIKKGLSRLAPSLRVIDYSQLLGITRGYSIVQIKVKRRSWLADKTLRDLQLDKEGVLVLGIYRKVNGRRVYLGAPHGSTKVLPGDELILYGPEDVLMSLSKRLKGAKGEKEHVEAMEMAKARRVQEEREAGISV | failed
16 | MIYWLYLAVFFLLSALDAKEIAMQRFDKQNHKIFEILADKVSAKDNVITASGNAILLNYDVYILADKVRYDTKTKEALLEGNIKVYRGEGLLVKTDYVKLSLNEKYEIIFPFYVQDSVSGIWVSADIASGKDQKYKVKNMSTSGCSIDNPIWHVNATSGSFNMQKSHLSMWNPKIYVGDIPVLYLPYIFMSTSNKRTTGFLYPEFGTSNLDGFIYLQPFYLAPKNSWDMTFTPQIRYKRGFGLNFEARYINSKNDRFLFNARYFRNYTQYVKRYDLRNQNIYGFEFLSSSRDTLQKYFHLKSNIDNGHYIDFLYMNDLDYVRFEKVNKRITDATHMSRANYYLQTENNYYGLNIKYFLNLNKINNNRTFQSVPNLQYHKYLNSLYFRNLLYSVDYQFRNTAREIGYGYVQNALNVPVGLQFSLFKKYLSLGLWNDLQLSNVALMQSKNSFVPTIPNESREFGNFVSSNFSMYVNTDLAREYNKLFHTIQLEAIFNIPYYTFKNGLFSQNMYALSAQALNSYTSPLLRDYDYQGRLYDSVWNPSSILPSNASNKTVDLTLTQYLYGLGGQELLYFKISQLINLDDKVSPFRMPLESKIGFSPLTGLNIFGNVFYSFYQNRLEEISVNANYQRKFLSFNLSYFLKNNFSSGINSIVENLRII | failed
17 | MKHSGFQAKRLIQLALPVLIAQVTQTMMGFIDTVMAGRVSAVDMAAVAVGTSLWLPAILFVQGLLMAFTPLFAHHNGANNQKAIQPLAFQGAYLALIGGLGVMVFLASAPLVLSHMNLEPQLYNLTIGYIDGILWGAPAFVLYQVLRGCSEGISYTLPTMVIGFVGLAVNIPANYIFIYGHFGIPAMGGAGCGIATALVFWAMLIAMAIYMQFHKKFAALAPFSQFHRPDFATMKKMTKLGLPIAMALFFEVSLFAIIALLLAPLGATVVASHQIALNFSAIVFMLPLSIGIAVSIRIGYYLGRDRADISAVVAKVGLLLALSLALSTAILTVLFRFQIAELYNSDPEVVVLAGSLMLMAALYQLSDSVQVVAAGALRGYKDTRSAFYITLFSYWGIGMSLGYTLAYTDFIVPAMGAHGFWTGLIAGLTSAALLFFIRLRYIQKHRVHLSLIEGDSVHH | failed
18 | MESKEERALNNLIVENVNQENDEKDEKEQVANKGEPLALPLNVSEYCVPRGNRRRFRVRQPILQYRWDIMHRLGEPQARMREENMERIGEEVRQLMEKLREKQLSHSLRAVSTDPPHHDHHDEFCLMP | not failed
19 | MAKGTAVEFQPGGGQARDVFSIAAQAASPAADAGTSAAPAQAAPAPAAVASQAQHFGRTAEPAEPTDLWSYFWNGVTRNYFNFAGRARRKEYWGYCLFWTIALLVIVGIGVFADAEMGNFDSAEMPAMTVGLFGLFLLATFLPSLGMIVRRLHDLGLTGWLCLLILIPTFGSLIILVFALIPTQGRENQWGPVPAGVRV | failed
20 | MATPFWYNAALKVLKPVYRWRIKKRAENEMRYQQECRERFGPFQQPQNRHALWFHAVSVGETNAAQPLIEYYLKLGHPVLVTNTTKTGQARAKSLFLKSPYLELFQAVYLPVDQIFLLKQFFELYQPKLLALVETELWPNLIDQAQHYGVPTFLINARLSEKSAQGYARVSALSNAMLSRLTGLLAQDQSTQQRFIGLGLAREKAQVVGNIKFDIDVPLLFVEQARRLQQQWQLAGRKIMVLASTHAPEEQQLLTALKTHLMADPDLLCIVVPRHPERFDEVFQICQNLQLDTARRSLEQPIQPETQVYLADSMGELWLWYALAQTAFVGGSLNEPGGGHNILEPMALKIPVVIGPRYFNFQTIVDEFRETEAIDIVQDATQAVRQLLHYVSTPNSADQIVDHAQSILQRNKGSLARHIHVLDQYLS | failed
